According to publication PMC5734868 (ACS infectious diseases, 2017):

Target: the molecule itself
Assay: SDS-PAGE of semi-denatured protein

B1: M. tuberculosis aspartate decarboxylase PanD, wild type (enzyme)
chain: MLRTMLKSKIHRATVTCADLHYVGSVTIDADLMDAADLLEGEQVTIVDIDNGARLVTYAITGERGSGVIGINGAAAHLVHPGDLVILIAYATMDDARARTYQPRIVFVDAYNKPIDMGHDPAFVPENAGELLDPRLGVG
Q: Does B1 bind?
A: binds
